# Key:
# Test in all cases: fluorescence anisotropy
# Details in all cases: Hill slope fit; 10 nM 6-FAM ssDNA, 0.001-6 uM protein, 20 min at 30 C, read at room temperature; binding buffer not stated (protein storage FP buffer: 200 mM NaCl, 50 mM …)
# [1] = test system: condensin holocomplex, Smc4-A1376S-Q1377A (Saccharomyces cerevisiae (overexpressed in strain D1074))
# [2] = test system: condensin holocomplex, wild-type Smc4 (Saccharomyces cerevisiae (overexpressed in strain D1074))
# [3] = test system: condensin holocomplex, Smc4-Q1377A (Saccharomyces cerevisiae (overexpressed in strain D1074))
# [4] = test system: condensin holocomplex, Smc4-L1333V-L1335A (Saccharomyces cerevisiae (overexpressed in strain D1074))
# [5] = test system: condensin holocomplex, Smc4-L1335A (Saccharomyces cerevisiae (overexpressed in strain D1074))
# [6] = test system: condensin holocomplex, Smc4-L1333I-L1335A (Saccharomyces cerevisiae (overexpressed in strain D1074))
# [7] = test system: condensin holocomplex, Smc4-K191M (Saccharomyces cerevisiae (overexpressed in strain D1074))
substance,measurement,setting,value
6-FAM 60-nt ssDNA,Kd,[1],171 nM
same,Kd,[2],252 nM
same,Kd,[3],216 nM
same,Kd,[4],148 nM
same,Kd,[5],193 nM
same,Kd,[6],92.8 nM
same,Kd,[7],76.7 nM

# Source: article PMC6039025
